Changes are numbered by the printed parent chain. Names and notes keep the numbering of the source. “Also recorded” adds a separate entry of the source.

This note sets out measurements from patent US9631002B2, “Methods and compositions for producing active vitamin K-dependent proteins” (The University of North Carolina at Chapel Hill, priority 2010, dated 2017).

Data set [1] deals with FIXgla-PC carboxylation in HEK 293 cells. Format: cell-based, human. The note with it: 11 μM vitamin K or 5 μM KO, HEK293.
Data set [2] relates to carboxylation of FIXgla-PC reporter protein in HEK293 cells (reduction of KO to vitamin K). The data set is described as follows: Cell-based VKOR activity assay: recombinant VKOR/VKORH expressed in FIXgla-PC/HEK293 cells with KO and warfarin, carboxylated reporter by ELISA. More on the design: species or system human. Conditions: for carboxylation activity of modified human VKOR: FIGS. 23, 33; for carboxylation of reporter protein by human VKOR cysteine mutants: Y139F background, HEK293 (FIG. 13); for activity in the in vivo assay: cysteine mutants of VKOR-Y139F, 4 μM warfarin (FIGS. 17A-B); for ability of human VKOR with replaced residues 122-139 to use KO to carboxylate the reporter: 2 μM warfarin, 48 h, HEK293 (FIG. 11C); for Relative activity: Human Y139F: VKOR of the organism compared to human Y139F VKOR, cell-based carboxylation. (In general: An ELISA detects its analyte on a solid surface through an enzyme-linked reagent.)

For data set [3], the system named is carboxylation of FIXgla-PC reporter protein in AV12 cells (reduction of vitamin K to KH2). The data set is described as follows: Cell-based VKOR activity assay in FIXgla-PC/AV12 or FIXgla-PC/VKOR-Y139F/AV12 cells, carboxylated reporter by ELISA. More on the design: species or system Syrian golden hamster. Conditions: for ability of human VKOR with replaced residues 122-139 to use vitamin K to carboxylate the reporter: 11 μM K, 2 μM warfarin, 48 h, FIXgla-PC AV-12 (FIG. 11B).

Regarding `CC(=CCC12OC1(C)C(=O)c1ccccc1C2=O)CCCC(C)CCCC(C)CCCC(C)C` (centres unmarked) [KO, Vitamin K1 2,3-epoxide], the “increase in secretion of carboxylated reporter protein compared to no additions” value in data set [1] is “approximately 25 fold”.

B1: AR-VKORH: Arabidopsis VKORH, NP_567988.1, SEQ ID NO:19 (protein, listed as Arabidopsis thaliana)
chain: MMARFVSVSSCQFHFGFREVSPPSVTSYPRRFEVSDRRFPAIPIKCSSSEPENGEDSAPSLSSSSSSSTSEVSTSNSSTYNWYTGIGGIGMLDTAYLTYLKVTGSDAFCPIGGGTCGDVLNSDYAVVFGVPLPVIGFVMYGVVTALSAELGEGNLPFGISKSNGRFALFGITTAMASASAYFLYILSTKLSGSSCLYCLVSAFLSFSLFFLSVKDVKLQEIQQVVGLQICLAIIVVASLTASYSTAQPIPSRSGDIELPYFRTEISSSSSPYAIALAKHLNSIGAKMYGAFWCSHCLEQKEMFGREAAKELNYVECFPDGYKKGTKILKACADAAIEGFPTWIINDKVLS
B1: in data set [2] (5 μM KO, 4 μM warfarin, 48 h (FIG. 15B)), the “support of carboxylation of the reporter protein with KO as substrate” value was “only MT-VKORH supported carboxylation”. In data set [3] (transient expression in FIXgla-PC/VKOR-Y139F/AV12, KO and warfarin (FIG. 19A)), the “activity in reducing vitamin K to KH2 to support carboxylation” value is given as “no significant activity”.

B2: Human VKOR with amino acids 44-50 substituted with amino acids DYKDDDDK (Flag tag): human VKOR cysteine loop 44-50 replaced with FLAG tag, SEQ ID NO:34 (protein)
chain: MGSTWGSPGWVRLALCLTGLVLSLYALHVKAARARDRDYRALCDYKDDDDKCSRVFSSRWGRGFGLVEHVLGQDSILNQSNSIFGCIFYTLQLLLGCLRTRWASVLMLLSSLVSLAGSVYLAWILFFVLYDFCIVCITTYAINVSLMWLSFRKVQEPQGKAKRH
modifications: Human VKOR with amino acids 44-50 substituted with amino acids DYKDDDDK (Flag tag)
For the molecule B2, the “carboxylation activity of modified human VKOR” value in data set [2] is “increased activity”.

B3: 5C-Mut: VKOR-Y139F with C16A, C43A, C51A, C85A and C96A simultaneously (protein, UniProt Q9BQB6 1-163, looked up, variant Y139F C16A C43A C51A C85A C96A)
Vitamin K epoxide reductase …: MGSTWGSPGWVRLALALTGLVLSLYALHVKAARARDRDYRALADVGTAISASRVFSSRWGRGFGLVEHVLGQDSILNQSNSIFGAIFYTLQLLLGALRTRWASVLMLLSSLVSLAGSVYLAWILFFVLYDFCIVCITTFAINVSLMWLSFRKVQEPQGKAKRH
With B3, the “carboxylation of reporter protein by human VKOR cysteine mutants” value in data set [2] (4 μM warfarin) was “indistinguishable from VKORY139F”. For the same molecule, the “activity in the in vivo assay” value in data set [2] (5 μM KO) was about 40%.

B4: C43/51A: VKOR-Y139F with double mutation C43A and C51A (protein, UniProt Q9BQB6 1-163, looked up, variant Y139F C43A C51A)
Vitamin K epoxide reductase …: B3 Vitamin K epoxide reductase … with A16C, A85C, A96C
As for B4, in data set [2] (4 μM warfarin), the “carboxylation of reporter protein by human VKOR cysteine mutants” value is listed as “restores normal (VKORY139F) activity”. In addition, the “activity in the in vivo assay” value in data set [2] (5 μM KO) is on record as about 60%.

B5: V45N: human VKOR comprising a V45N substitution introducing an additional glycosylation site, SEQ ID NO:25 (protein)
chain: B3 Vitamin K epoxide reductase … with A16C, A43C, V45N, A85C, A96C, F139Y
modifications: Human VKOR with V45N mutation
Consider B5, for which, in data set [2], the “carboxylation activity of modified human VKOR” value is “increased carboxylation activity”.

B6: C43-51-DEL: VKOR-Y139F with deletion of C43, C51 and the residues between them (protein, UniProt Q9BQB6 1-163, looked up, variant Y139F del43-51)
Vitamin K epoxide reductase …: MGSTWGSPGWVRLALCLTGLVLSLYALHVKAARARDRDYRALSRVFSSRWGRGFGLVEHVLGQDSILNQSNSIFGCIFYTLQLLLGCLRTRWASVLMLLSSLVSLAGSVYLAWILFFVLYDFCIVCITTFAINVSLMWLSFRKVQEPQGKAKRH
With B6, the “activity in the in vivo assay” value in data set [2] (5 μM KO) is about 60%.

B7: VKORC1L1: the VKOR paralogue, four TMDs (protein, UniProt Q8N0U8 1-176, looked up)
Vitamin K epoxide reductase …: MAAPVLLRVSVPRWERVARYAVCAAGILLSIYAYHVEREKERDPEHRALCDLGPWVKCSAALASRWGRGFGLLGSIFGKDGVLNQPNSVFGLIFYILQLLLGMTASAVAALILMTSSIMSVVGSLYLAYILYFVLKEFCIICIVTYVLNFLLLIINYKRLVYLNEAWKRQLQPKQD
For the molecule B7, the “activity in cell-based in vivo activity assays” value in data set [2] is recorded as “active in the vitamin K cycle”.

B8: hVKOR Arabidopsis: human VKOR with residues 122-139 replaced by Arabidopsis VKOR 185-202, SEQ ID NO:30 (protein)
chain: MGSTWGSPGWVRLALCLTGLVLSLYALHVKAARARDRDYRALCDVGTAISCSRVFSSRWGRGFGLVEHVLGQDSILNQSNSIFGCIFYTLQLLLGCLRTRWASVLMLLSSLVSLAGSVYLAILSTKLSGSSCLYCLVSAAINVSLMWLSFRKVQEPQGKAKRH
modifications: Human VKOR with amino acids 122-139 substituted with amino acids 185-202 of A. thaliana VKOR (RefSeq accession no. NP_567988)
For B8, the “ability of human VKOR with replaced residues 122-139 to use KO to carboxylate the reporter” value in data set [2] (5 μM KO) is listed as “only the human VKOR substituted with the M. tuberculosis domain functions as a VKOR”. The “ability of human VKOR with replaced residues 122-139 to use vitamin K to carboxylate the reporter” value in data set [3] is reported as “can utilize vitamin K to produce carboxylated reporter protein”.

B9: hVKOR DsbB: human VKOR with residues 122-139 replaced by bacterial DsbB 33-50, SEQ ID NO:32 (protein)
chain: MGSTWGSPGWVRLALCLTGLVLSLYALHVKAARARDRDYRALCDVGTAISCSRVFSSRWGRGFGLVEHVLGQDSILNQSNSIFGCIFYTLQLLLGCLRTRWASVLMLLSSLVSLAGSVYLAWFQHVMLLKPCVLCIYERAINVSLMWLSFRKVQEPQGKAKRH
modifications: Human VKOR with amino acids 122-139 substituted with amino acids 33-50 of DsbB enzyme (RefSeq accession no. ZP_03067529)
In the case of B9, the “ability of human VKOR with replaced residues 122-139 to use KO to carboxylate the reporter” value in data set [2] (5 μM KO) is given as “only the human VKOR substituted with the M. tuberculosis domain functions as a VKOR”. Further, the “ability of human VKOR with replaced residues 122-139 to use vitamin K to carboxylate the reporter” value in data set [3] is listed as “can utilize vitamin K to produce carboxylated reporter protein”.

B10: Xenopus tropicalis: Xenopus VKOR NP_001006928, SEQ ID NO:8, Y138F (protein)
chain: MAVPGWERAVRLLLCGVGIALSVYAYHVETSRERDANYTALCDINPSISCSKVFTSRWGRGFGLVEQILGRQSFLNQPNSVFGILFYGLQVLLGFSGSVGAAAALLGTSLVSIAGSLYLAYILFYVLEDFCVICVTTFALNFCLLLLNLKRLASLRAPPKKQKNKRKKN
modifications: Xenopus (Silurana) tropicalis
In the case of B10, in data set [2], the “Relative activity: Human Y139F” value was “Yes, greater”.

B11: Takifugu: Takifugu VKOR NP_001027838, SEQ ID NO:7, Y138F (protein)
chain: MAIPTWERKVRIFLCVFGLLLSVYALHVELSRERNPDYRAMCDLGESVSCSKVFSSRWGRGFGLVQYFVDKDSPLNQPNSVLGIIFYTLQMCLGLSLSRKAALFLVFSSWVSVAGSLYLASILAFVLGDFCMVCVSTFLVNFVLLFTNLKRRRAIEGLKEKSG
modifications: Takifugu rubripes
As to B11, the “Relative activity: Human Y139F” value in data set [2] was “Yes, greater”.

B12: VKOR-CM: human VKOR with R37G, R35G, R33G, K30L, G9R, S7R and G6R mutations, SEQ ID NO:35 (protein)
chain: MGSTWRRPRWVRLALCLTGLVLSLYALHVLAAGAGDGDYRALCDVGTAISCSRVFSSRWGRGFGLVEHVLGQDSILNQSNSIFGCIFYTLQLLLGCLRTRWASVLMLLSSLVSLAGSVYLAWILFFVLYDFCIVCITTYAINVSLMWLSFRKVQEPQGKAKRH
modifications: Human VKOR comprising an R37G mutation, an R35G mutation, an R33G mutation, a K30L mutation, a G9R mutation, an S7R mutation and a G6R mutation
Regarding B12, the “ability to carboxylate vitamin K dependent reporter protein relative to wild type / control VKOR” value in data set [2] (charge-mutated human VKOR (FIG. 32)) was “approximately fourfold; also recorded: about four times more active”.

B13: Amphioxus: Amphioxus VKOR, SEQ ID NO:11, Y144F (protein, listed as Branchiostoma floridae)
chain: MAAGRSFRLPIWEILSRCMLCTAGLVLSGYAFYVETSKEADHSYTAMCDVSESVSCSKVFTSRFGRGFGLVEPILGADSPLNLPNSIFGLAFYIMQLCLGVVPGMSVSIVLLATSVLSCLGCVYLAYILYFILQDACIVCISTFVVNTFMLIVNIKRVLLQRKAILKKQQ
Take B13: in data set [2], the “Relative activity: Human Y139F” value was “Yes, greater”.

B14: Trichoplax: Trichoplax VKOR XM_002107720.1, SEQ ID NO:15 (protein, listed as Trichoplax adhaerens)
chain: B13 chain with F144Y, F149L, I152V, I165L
With B14, in data set [2], the “Relative activity: Human Y139F” value is reported as “No”.
